Laboratory results: patent US20110118447A1
Where a chain is given by its changes, count along the chain named. Names may count otherwise.

B1: C5A (XPA23) VH N104Q (antibody, V domains shown)
VH: EVQLLESGGGLVQPGGSLRLSCAASGFTFSKYFMFWVRQAPGKGLEWVSVISPSGGMTRYADSVKGRFTISRDNSKNTLYLQMNSLRAEDTAVYYCARVGYGGQSDYWGQGTLVTVSS
VL: DIQMTQSPSSVSASVGDRLTIICRASQDINRWLAWYQQTPGNAPKLLIHSATSLQSGVPSRFSGSGSGTDFTLTINSLQPEDFATYYCQQADSFPLTFGGGTKVEIK
B2: C5A (XPA23) VH F35P (antibody, V domains shown)
VH: B1 VH with F35P, Q104N
VL: B1 VL
B3: C5A (XPA23) VH S105E (antibody, V domains shown)
VH: B1 VH with Q104N, S105E
VL: B1 VL
B4: C5A (XPA23) VH D106H (antibody, V domains shown)
VH: B1 VH with Q104N, D106H
VL: B1 VL
B5: C5A (XPA23) VH V50G (antibody, V domains shown)
VH: B1 VH with V50G, Q104N
VL: B1 VL
B6: C5A (XPA23) VH Y107E (antibody, V domains shown)
VH: B1 VH with Q104N, Y107E
VL: B1 VL
B7: C5A (XPA23) VH Y107K (antibody, V domains shown)
VH: B1 VH with Q104N, Y107K
VL: B1 VL
B8: C5A (XPA23) VH D106S (antibody, V domains shown)
VH: B1 VH with Q104N, D106S
VL: B1 VL
B9: C5A (XPA23) VH Y107D (antibody, V domains shown)
VH: B1 VH with Q104N, Y107D
VL: B1 VL
B10: C5A (XPA23) VH F35A (antibody, V domains shown)
VH: B1 VH with F35A, Q104N
VL: B1 VL
B11: C5A (XPA23) VH I51F (antibody, V domains shown)
VH: B1 VH with I51F, Q104N
VL: B1 VL
B12: C5A (XPA23) VH D106R (antibody, V domains shown)
VH: B1 VH with Q104N, D106R
VL: B1 VL
B13: C5A (XPA23) VH F35V (antibody, V domains shown)
VH: B1 VH with F35V, Q104N
VL: B1 VL
B14: C5A (XPA23) VH S105N (antibody, V domains shown)
VH: B1 VH with Q104N, S105N
VL: B1 VL
B15: C5A (XPA23) VH S52A (antibody, V domains shown)
VH: B1 VH with S52A, Q104N
VL: B1 VL
B16: C5A (XPA23) VH S52P (antibody, V domains shown)
VH: B1 VH with S52P, Q104N
VL: B1 VL
B17: C5A (XPA23) VH V50I (antibody, V domains shown)
VH: B1 VH with V50I, Q104N
VL: B1 VL
B18: C5A (XPA23) VH I51V (antibody, V domains shown)
VH: B1 VH with I51V, Q104N
VL: B1 VL
B19: C5A (XPA23) VH I51L (antibody, V domains shown)
VH: B1 VH with I51L, Q104N
VL: B1 VL
B20: C5A (XPA23) VH Y107Q (antibody, V domains shown)
VH: B1 VH with Q104N, Y107Q
VL: B1 VL
B21: C5A (XPA23) VH F35I (antibody, V domains shown)
VH: B1 VH with F35I, Q104N
VL: B1 VL
B22: C5A (XPA23) VH I51G (antibody, V domains shown)
VH: B1 VH with I51G, Q104N
VL: B1 VL
B23: C5A (XPA23) VH S105Q (antibody, V domains shown)
VH: B1 VH with Q104N, S105Q
VL: B1 VL
B24: C5A (XPA23) VH S52G (antibody, V domains shown)
VH: B1 VH with S52G, Q104N
VL: B1 VL
B25: C5A (XPA23) VH S105T (antibody, V domains shown)
VH: B1 VH with Q104N, S105T
VL: B1 VL
B26: C5A (XPA23) VH F35L (antibody, V domains shown)
VH: B1 VH with F35L, Q104N
VL: B1 VL
B27: C5A (XPA23) VH V50A (antibody, V domains shown)
VH: B1 VH with V50A, Q104N
VL: B1 VL
B28: C5A (XPA23) VH Y107S (antibody, V domains shown)
VH: B1 VH with Q104N, Y107S
VL: B1 VL
B29: C5A (XPA23) VH V50L (antibody, V domains shown)
VH: B1 VH with V50L, Q104N
VL: B1 VL
B30: C5A (XPA23) VH I51A (antibody, V domains shown)
VH: B1 VH with I51A, Q104N
VL: B1 VL
B31: C5A (XPA23) VH S52V (antibody, V domains shown)
VH: B1 VH with S52V, Q104N
VL: B1 VL
B32: C5A (XPA23) VH S105H (antibody, V domains shown)
VH: B1 VH with Q104N, S105H
VL: B1 VL
B33: C5A (XPA23) VH Y107R (antibody, V domains shown)
VH: B1 VH with Q104N, Y107R
VL: B1 VL
B34: C5A (XPA23) VH F35G (antibody, V domains shown)
VH: B1 VH with F35G, Q104N
VL: B1 VL
B35: C5A (XPA23) VH D106E (antibody, V domains shown)
VH: B1 VH with Q104N, D106E
VL: B1 VL
B36: C5A (XPA23) VH D106N (antibody, V domains shown)
VH: B1 VH with Q104N, D106N
VL: B1 VL
B37: C5A (XPA23) VH D106K (antibody, V domains shown)
VH: B1 VH with Q104N, D106K
VL: B1 VL
B38: C5A (XPA23) VH Y107T (antibody, V domains shown)
VH: B1 VH with Q104N, Y107T
VL: B1 VL
B39: C5A (XPA23) VH D106Q (antibody, V domains shown)
VH: B1 VH with Q104N, D106Q
VL: B1 VL

Molecular target: binding partner of C5A (XPA23)
Test: Biacore

In order of rising fold affinity vs original:
1. B4  0.02 fold
2. B39  0.02 fold
3. B1  0.03 fold
4. B8  0.03 fold
5. B35  0.04 fold
6. B37  0.04 fold
7. B32  0.05 fold
8. B12  0.06 fold
9. B36  0.07 fold
10. B7  0.82 fold
11. B9  0.85 fold
12. B14  0.85 fold
13. B33  0.85 fold
14. B20  0.87 fold
15. B28  0.89 fold
16. B6  0.9 fold
17. B11  0.9 fold
18. B23  0.98 fold
19. B3  1.17 fold

In order of rising fold difference in affinity vs original:
1. B5  0.03 fold
2. B24  0.03 fold
3. B31  0.04 fold
4. B34  0.04 fold
5. B15  0.05 fold
6. B16  0.05 fold
7. B2  0.06 fold
8. B10  0.07 fold
9. B27  0.09 fold
10. B29  0.09 fold
11. B17  0.1 fold
12. B25  0.11 fold
13. B26  0.78 fold
14. B19  0.79 fold
15. B38  0.83 fold
16. B21  0.85 fold
17. B13  0.89 fold
18. B22  0.94 fold
19. B18  0.99 fold
20. B30  1.04 fold

Molecular target: binding partner (antigen) of C5A (XPA23)
Test: Biacore, K-off, fold vs original

In order of rising fold difference in affinity vs original:
1. B5  0.03 fold
2. B24  0.03 fold
3. B31  0.04 fold
4. B34  0.04 fold
5. B15  0.05 fold
6. B16  0.05 fold
7. B2  0.06 fold
8. B10  0.07 fold
9. B27  0.09 fold
10. B29  0.09 fold
11. B17  0.1 fold
12. B26  0.78 fold
13. B19  0.79 fold
14. B21  0.85 fold
15. B13  0.89 fold
16. B11  0.9 fold
17. B22  0.94 fold
18. B18  0.99 fold
19. B30  1.04 fold

Molecular target: binding partner of C5A (XPA23)
Test: Biacore, K-off

In order of falling fold difference in affinity vs original:
1. B3  1.17 fold
2. B23  0.98 fold
3. B6  0.9 fold
4. B28  0.89 fold
5. B20  0.87 fold
6. B9  0.85 fold
7. B14  0.85 fold
8. B33  0.85 fold
9. B38  0.83 fold
10. B7  0.82 fold
11. B25  0.11 fold
12. B36  0.07 fold
13. B12  0.06 fold
14. B32  0.05 fold
15. B35  0.04 fold
16. B37  0.04 fold
17. B1  0.03 fold
18. B8  0.03 fold
19. B4  0.02 fold
20. B39  0.02 fold
